Non-standard residues stand in square brackets, D forms with d. No end group written: not given here. Cit = NC(=O)NCCC[C@H](N)C(=O)O
Experiments:
[1] = molecular target: T1, human recombinant histone H2A (human); assay: ELISA, 2 ug/well
T1 construct: Non-deiminated
Description: (§1) CFC-1 and CFC-0 were coated at the same concentration and served as positive and negative controls, respectively, for specific anti-citrulline reactivity and as coating controls. Non-coated wells were used to test for aspecific binding of the antibodies. […] Detection of bound anti-citrulline antibodies was performed by incubating the wells with rabbit-anti-human-HRP (1:2000) for one hour at RT followed by incubation with TMB substrate. The resulting OD (y-axis) is a measure for antibody binding. H1=recombinant histone 1; H1/p2=huPAD2 recombinant histone 1; H1/p4=huPAD4 recombinant histone 1 and so forth (x-axis).

[2] = molecular target: T2, huPAD4 deiminated human recombinant histone H2B (human); assay: ELISA, 2 ug/well
T2 construct: also called H2B/p4
Description: as §1

[3] = molecular target: T3, huPAD2 deiminated human recombinant histone H3 (human); assay: ELISA, 2 ug/well
T3 construct: also called H3/p2
Description: as §1

[4] = molecular target: human recombinant histone H4 (human, UniProt P62805 2-103); assay: ELISA, 2 ug/well
Description: as §1

[5] = molecular target: T4, huPAD4 deiminated human recombinant histone H3 (human); assay: ELISA, 2 ug/well
T4 construct: also called H3/p4
Description: as §1

CFC-1 [6] = molecular target: T5, CFC-1; assay: ELISA, 2 ug/well
T5 construct: Positive control for anti-citrulline reactivity; also called cfc1 XG
Description: as §1

[7] = molecular target: T6, huPAD4 deiminated human recombinant histone H2A (human); assay: ELISA, 2 ug/well
T6 construct: also called H2A/p4; huPAD4 deiminated histone 2A
Description: as §1

[8] = molecular target: T7, huPAD2 deiminated human recombinant histone H2B (human); assay: ELISA, 2 ug/well
T7 construct: also called H2B/p2
Description: as §1

[9] = molecular target: T8, huPAD2 deiminated human recombinant histone H2A (human); assay: ELISA, 2 ug/well
T8 construct: also called H2A/p2
Description: as §1

[10] = molecular target: T9, human recombinant histone H2B (human); assay: ELISA, 2 ug/well
T9 construct: Non-deiminated
Description: as §1

huFibα XG = molecular target: T10, huFibα XG (human, X at position 8 is citrulline; biotin label); assay: peptide ELISA, 0.000128 ug/well
T10 peptide: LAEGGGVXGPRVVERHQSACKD
Description: (§2) Biotin and citrulline-containing peptides derived from fibrinogen and vimentin were immobilized on NEUTRAVIDIN®-coated 96-well ELISA plates (0.3 μg/well). CFC-1 and CFC-0 were coated at the same concentration and served as positive and negative controls respectively for specific anti-citrulline reactivity and as coating controls. Non-coated wells were used to test for aspecific binding of the antibodies. […] Detection of bound anti-citrulline antibodies was performed by incubating the wells with rabbit-anti-human-HRP (1:2000) for one hour at RT followed by incubation with TMB substrate. The resulting OD (y-axis) is a measure for antibody binding.
(§3) Biotin-labeled and citrulline-containing fibrinogen and vimentin peptides (Table 5) were also tested for reactivity with the therapeutic antibodies. Peptides were coated on 96-well NEUTRAVIDIN®-ELISA plates.

msFibα XG = molecular target: T11, msFibα XG (mouse, X at position 8 is citrulline; biotin label); assay: peptide ELISA, 0.000128 ug/well
T11 peptide: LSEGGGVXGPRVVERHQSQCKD
Description: as §2, §3

huFibα XH = molecular target: T12, huFibα XH (human, X at position 15 is citrulline; biotin label); assay: peptide ELISA, 0.000128 ug/well
T12 peptide: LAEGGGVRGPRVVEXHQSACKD
Description: as §2, §3

CFC-1 [11] = molecular target: T5, CFC-1; assay: peptide ELISA, 0.000128 ug/well
Description: as §2, §3

msFibα XH = molecular target: T13, msFibα XH (mouse, X at position 15 is citrulline; biotin label); assay: peptide ELISA, 0.000128 ug/well
T13 peptide: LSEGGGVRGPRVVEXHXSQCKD
Description: as §2, §3

msFibβ XG = molecular target: T14, msFibβ XG (mouse, also: biotin label); assay: peptide ELISA, 0.000128 ug/well
T14 peptide: EPTDSLDA[Cit]GHRPVDRR
Description: as §2, §3

msVim XS/XL = molecular target: T15, msVim XS/XL (mouse, also: biotin label); assay: peptide ELISA, 0.000128 ug/well
T15 construct: also called mouse vimentin peptide
T15 peptide: YVT[Cit]SSAV[Cit]L[Cit]SSVP
Description: as §2, §3

[12] = molecular target: T16, Histone 2A citrulline-containing peptide 9 (human, also: biotin label); assay: peptide ELISA, 10 ug/well
T16 peptide: DNKKT[Cit]IIPRHL
Description: as §2, with “histone 2A” for “fibrinogen and vimentin”
(§4) Ninety-six-well ELISA plates were coated with NEUTRAVIDIN® (0.1 μg/well) by overnight incubation at 4° C. Wells were washed five times with PBS-TWEEN®-20 (PBS-T) and blocked by a one-hour incubation with PBS-T+1% Bovine serum albumin (BSA) at room temperature (RT). After five more washes with PBS-T, wells were incubated for one hour at RT with histone-derived citrulline and biotin-containing peptides (0.3 μg/well). […] Wells were washed five times with PBS-T and incubated with rabbit-anti-human-HRP (1:2000) for one hour at RT followed by five washes with PBS-T and three wash steps with PBS. Wells were incubated for five minutes with TMB substrate before stopping the reaction with 2 M H₂SO₄. Optical density was measured by 450 nm and is a measure for the affinity of the antibodies used.

CFC-1 [13] = molecular target: T5, CFC-1; assay: peptide ELISA, 10 ug/well
Description: as §2, with “histone 2A” for “fibrinogen and vimentin”
as §4

[14] = molecular target: T17, Histone 2A citrulline-containing peptide 1 (human, also: biotin label); assay: peptide ELISA, 10 ug/well
T17 construct: also called AAASGXGKQGGK
T17 peptide: AAASG[Cit]GKQGGK
Description: as §2, with “histone 2A” for “fibrinogen and vimentin”
as §4

[15] = molecular target: T18, Histone 2A citrulline-containing peptide 2 (human, also: biotin label); assay: peptide ELISA, 10 ug/well
T18 peptide: AKAKS[Cit]SSRAGL
Description: as §2, with “histone 2A” for “fibrinogen and vimentin”
as §4

[16] = molecular target: T19, Histone 2A citrulline-containing peptide 3 (human, also: biotin label); assay: peptide ELISA, 10 ug/well
T19 peptide: KSRSS[Cit]AGLQFP
Description: as §2, with “histone 2A” for “fibrinogen and vimentin”
as §4

[17] = molecular target: T20, Histone 2A citrulline-containing peptide 6 (human, also: biotin label); assay: peptide ELISA, 10 ug/well
T20 peptide: VHRLL[Cit]KGNYSE
Description: as §2, with “histone 2A” for “fibrinogen and vimentin”
as §4

[18] = molecular target: T21, Histone 2A citrulline-containing peptide 5 (human, also: biotin label); assay: peptide ELISA, 10 ug/well
T21 peptide: VGRVH[Cit]LLRKGN
Description: as §2, with “histone 2A” for “fibrinogen and vimentin”
as §4

B1: RhmAb2.102 (antibody, human IgG1, lambda)
heavy: not shown
light: QSVLTQPPSMSAAPGQKVTISCSGSSSNIGNNYVSWYQQVPGTAPKLLIYDDNKRPSGIPGRFSGSKSATSATLGITGLQAGDEADYYCGSWDDNLSVVLFGGGTKLTVLGQPKAAPSVTLFPPSSEELQANKATLVCLISDFYPGAVTVAWKADSSPVKAGVETTTPSKQSNNKYAASSYLSLTPEQWKSHRSYSCQVTHEGSTVEKTVAPTECS
notes: Human IgG1 lambda; also called Rhm2.102
OD [1]: 0.115 OD | OD [2]: 0.069 OD | OD [3]: 1.94 OD | OD [4]: 0.208 OD | OD [5]: 0.439 OD | OD (CFC-1 [6]): 3.38 OD | OD [7]: 3.13 OD | OD [8]: 0.086 OD | OD [9]: 3.18 OD | OD [10]: 0.076 OD | OD (huFibα XG): 0.115 OD | OD (msFibα XG): 0.119 OD | OD (huFibα XH): 0.12 OD | OD (CFC-1 [11]): 0.288 OD | OD (msFibα XH): 0.089 OD | OD (msFibβ XG): 0.118 OD | OD (msVim XS/XL): 0.133 OD | OD [12]: 0.09 OD | OD (CFC-1 [13]): 3.27 OD | OD [14]: 3.11 OD | OD [15]: 0.552 OD | OD [16]: 0.619 OD | OD [17]: 1.41 OD | OD [18]: 0.239 OD

— US20170298146A1 (MODIQUEST B V, published 2017)
